From US20250188166A1

Assays:
[1] = target: native IL-18 wild-type (SEQ ID NO: 1) (human) (UniProt Q14116); test: cell-based or functional assay
[2] = target: IL-18 polypeptide SEQ ID NO: 30 (E6K, V11I, C38A, K53A, T63A, C76A, C127A) (human) (UniProt Q14116); test: cell-based or functional assay

Substance: His-tag human IL-18 binding protein isoform a (from UniProt O95998 31-194)
- IC50 of IL-18BPa on IFNγ secretion, PD-1^negative Parental NK-92 [1]: 2.97 nM
- IC50 of IL-18BPa on IFNγ secretion, PD-1^positive NK-92 [1]: 2.67 nM
- IC50 of IL-18BPa on IFNγ secretion, PD-1^negative Parental NK-92 [2]: 110 nM
- IC50 of IL-18BPa on IFNγ secretion, PD-1^positive NK-92 [2]: 80.3 nM
